Starred links: 1 amine or outer side, 2 acyl side, 3 side chain; linkers in the order of their positions; H or OH if unused. Positions of bridges follow the written chain, without caps; N, C: chain ends. Non-standard residues stand in square brackets, D forms with d. Primed or numbered codes have the meaning given here. *: point of attachment. PyrS2″ = (S)-3-amino-1-((pent-4-en-1-yloxy)carbonyl)pyrrolidine-3-carboxylic acid (stapling residue), C=CCCCOC(=O)N1CC[C@@](N[*:1])(C(=O)[*:2])C1; B5(4) = 2,2-bis(4-pentenyl)glycine = 2-amino-2-(pent-4-en-1-yl)hept-6-enoic acid (stitching residue), C=CCCCC(CCCC=C)(N[*:1])C(=O)[*:2]; B5(5) = 2,2-bis(4-pentenyl)glycine, 2-amino-2-(pent-4-en-1-yl)hept-6-enoic acid (stitching residue), C=CCCCC(CCCC=C)(N[*:1])C(=O)[*:2]; TfeGA = (S)-2-amino-3-((carboxymethyl)(2,2,2-trifluoroethyl)amino)propanoic acid, O=C([C@H](CN(CC(=O)[*:3])CC(F)(F)F)N[*:1])[*:2]; AcLys″ = N6-acetyl-lysine, CC(=O)NCCCC[C@H](N[*:1])C(=O)[*:2]; Bta = N[C@@H](Cc1csc2ccccc12)C(=O)O; αAllylPro = C=CC[C@@]1(C(=O)O)CCCN1; tBuAla = CC(C)(C)C[C@H](N)C(=O)O; 3Thi = N[C@@H](Cc1ccsc1)C(=O)O; S8 = C=CCCCCCC[C@](C)(N)C(=O)O; Ms = CS(=O)(=O)*
T1: B-cat-Halo (UniProt P35222 1-781)
T1 sequence (looked up): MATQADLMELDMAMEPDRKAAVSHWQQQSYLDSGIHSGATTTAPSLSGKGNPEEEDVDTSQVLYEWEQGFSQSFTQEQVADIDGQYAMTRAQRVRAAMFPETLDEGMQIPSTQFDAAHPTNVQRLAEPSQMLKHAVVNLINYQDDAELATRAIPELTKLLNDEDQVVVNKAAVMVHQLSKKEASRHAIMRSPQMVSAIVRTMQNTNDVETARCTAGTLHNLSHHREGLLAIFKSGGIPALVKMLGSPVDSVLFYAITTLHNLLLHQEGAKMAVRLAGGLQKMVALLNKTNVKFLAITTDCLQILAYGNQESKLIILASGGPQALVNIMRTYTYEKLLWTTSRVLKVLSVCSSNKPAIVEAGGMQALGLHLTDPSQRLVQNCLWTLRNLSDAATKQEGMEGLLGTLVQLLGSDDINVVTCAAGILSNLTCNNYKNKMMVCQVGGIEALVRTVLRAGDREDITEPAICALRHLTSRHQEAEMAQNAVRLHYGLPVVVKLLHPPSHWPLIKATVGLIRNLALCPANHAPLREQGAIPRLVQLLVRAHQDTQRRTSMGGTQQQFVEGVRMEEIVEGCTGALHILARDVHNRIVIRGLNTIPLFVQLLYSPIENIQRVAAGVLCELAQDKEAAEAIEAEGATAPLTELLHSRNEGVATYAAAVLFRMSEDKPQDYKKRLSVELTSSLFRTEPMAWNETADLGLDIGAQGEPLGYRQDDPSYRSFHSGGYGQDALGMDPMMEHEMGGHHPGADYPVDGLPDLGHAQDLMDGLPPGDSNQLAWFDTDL

T2: beta-catenin in DLD1 TCF/LEF luciferase reporter cells (UniProt P35222 1-781)
T2 sequence (looked up): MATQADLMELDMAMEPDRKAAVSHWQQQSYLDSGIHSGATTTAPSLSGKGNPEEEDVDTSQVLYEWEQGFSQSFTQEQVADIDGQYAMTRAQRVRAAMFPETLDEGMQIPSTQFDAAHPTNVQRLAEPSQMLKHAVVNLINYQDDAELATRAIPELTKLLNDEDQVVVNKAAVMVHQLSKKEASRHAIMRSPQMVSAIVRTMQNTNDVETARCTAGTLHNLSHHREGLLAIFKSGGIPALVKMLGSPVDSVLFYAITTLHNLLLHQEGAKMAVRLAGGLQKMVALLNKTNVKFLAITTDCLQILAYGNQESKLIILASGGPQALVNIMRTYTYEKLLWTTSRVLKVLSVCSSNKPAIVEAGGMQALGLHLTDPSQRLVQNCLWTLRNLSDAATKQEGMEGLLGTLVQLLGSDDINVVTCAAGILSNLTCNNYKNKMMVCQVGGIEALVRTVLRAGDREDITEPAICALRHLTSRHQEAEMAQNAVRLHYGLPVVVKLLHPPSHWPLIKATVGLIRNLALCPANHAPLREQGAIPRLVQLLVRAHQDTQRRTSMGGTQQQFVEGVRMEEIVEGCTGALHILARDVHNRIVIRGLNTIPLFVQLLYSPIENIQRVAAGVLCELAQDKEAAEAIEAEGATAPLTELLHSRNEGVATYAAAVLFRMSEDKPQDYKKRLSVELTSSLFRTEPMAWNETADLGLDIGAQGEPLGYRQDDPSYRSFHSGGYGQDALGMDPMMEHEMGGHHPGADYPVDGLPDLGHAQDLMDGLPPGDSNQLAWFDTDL

T3: full-length beta-Catenin (Uniprot ID P35222) (Homo sapiens (Human), UniProt P35222 1-781)
T3 construct: also called bCat; B-Catenin
T3 sequence: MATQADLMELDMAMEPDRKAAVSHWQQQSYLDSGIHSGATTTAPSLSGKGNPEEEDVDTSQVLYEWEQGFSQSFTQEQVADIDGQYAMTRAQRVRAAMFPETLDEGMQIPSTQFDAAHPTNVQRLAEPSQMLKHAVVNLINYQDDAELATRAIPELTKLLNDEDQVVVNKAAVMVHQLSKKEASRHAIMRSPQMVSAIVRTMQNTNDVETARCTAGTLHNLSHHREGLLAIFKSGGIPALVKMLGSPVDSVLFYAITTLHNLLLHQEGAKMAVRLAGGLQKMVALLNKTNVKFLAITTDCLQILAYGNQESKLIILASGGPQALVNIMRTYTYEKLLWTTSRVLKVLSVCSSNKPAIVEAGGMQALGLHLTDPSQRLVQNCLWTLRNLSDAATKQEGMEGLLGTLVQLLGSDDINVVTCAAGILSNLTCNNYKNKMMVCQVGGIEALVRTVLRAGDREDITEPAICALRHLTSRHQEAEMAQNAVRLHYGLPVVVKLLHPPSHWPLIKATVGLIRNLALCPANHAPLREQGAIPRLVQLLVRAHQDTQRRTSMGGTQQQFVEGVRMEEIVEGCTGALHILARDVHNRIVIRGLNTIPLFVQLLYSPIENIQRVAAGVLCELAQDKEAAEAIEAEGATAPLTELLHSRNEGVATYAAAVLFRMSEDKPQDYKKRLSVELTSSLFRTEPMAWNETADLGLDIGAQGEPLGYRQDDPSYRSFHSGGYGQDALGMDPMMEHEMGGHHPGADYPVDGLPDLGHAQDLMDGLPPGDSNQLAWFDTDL


Columns and labels:
B-cat-Halo = molecular target: T1, B-cat-Halo; assay: cell-based or functional assay
[1] = molecular target: T2, beta-catenin in DLD1 TCF/LEF luciferase …; assay: cell-based or functional assay
[2] = molecular target: T3, full-length beta-Catenin (Uniprot ID …); assay: fluorescence polarization competition; peptide titrated against full-length beta-catenin + 5FAM-TCF4(10-53)
Experimental: The plate was incubated protected from light for 60 minutes at 20° C. prior to read. Reads were performed on a CLARIOstar plate reader (BMG Labtech) in duplicate, and data were fitted to a 1:1 binding model with hill slope using an in-house script. All provided concentrations are final concentrations.

| NanoBRET Abs IC50 (B-cat-Halo) | DLD1 4% Abs IC50 [1] | IC50 [2] | Binder |
| --- | --- | --- | --- |
| 6.2 µM | 3.9 µM |  | Ac-[αAllylPro]D[tBuAla][B5(4)]D[TfeGA]AAFL[PyrS2″][3Thi][Bta][AcLys″]-NH2 (staple 1-4, 4-11) [I-1709] |
| 3.9 µM | 1.9 µM |  | Ac-[αAllylPro]D[tBuAla][B5(4)]D[TfeGA]AAFL[PyrS2″][3Thi][Bta]A-NH2 (staple 1-4, 4-11) [I-1710] |
|  |  | 0.088 µM | Ms-[αAllylPro]DI[B5(5)]DEAAFQ[S8]F[Bta]Q-NH2 (staple 1-4, 4-11, separate staple-isomer composition (later eluting HPLC peak); also called MeSO2-PL3-Asp-Ile-B5-Asp-Glu-Ala-Ala-Phe-Gln-S8-Phe-BztA-Gln-NH2) [I-711] |
